Our source for the Kd values is paper PMC3192115, “Analysis of RNA Binding by the Dengue Virus NS5 RNA Capping Enzyme”.

Broadly, the Kd is the concentration at which binding is half-saturated.

“And” between values parts separate entries of the source, which are not always exact repeats. Identical values can stand only once.

For series [1], the target named is T1, NS5 capping enzyme WT (West Nile) (West Nile virus) (UniProt Q9Q6P4).
T1 sequence: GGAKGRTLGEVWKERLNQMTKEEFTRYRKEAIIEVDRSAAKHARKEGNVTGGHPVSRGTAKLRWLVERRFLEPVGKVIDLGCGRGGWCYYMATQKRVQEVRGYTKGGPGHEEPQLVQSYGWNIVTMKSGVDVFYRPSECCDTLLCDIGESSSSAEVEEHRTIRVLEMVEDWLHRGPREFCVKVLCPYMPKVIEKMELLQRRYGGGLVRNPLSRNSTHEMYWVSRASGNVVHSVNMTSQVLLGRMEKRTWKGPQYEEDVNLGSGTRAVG
The series is described as follows: fluorescence polarization. Particulars: 5' diphosphate. A general note: Polarisation of emitted light reports the rotation of a fluorescent probe.

The target of series [2] is T2, NS5 N-terminal capping enzyme WT (dengue 2) (Dengue virus type 2, UniProt P29990 2492-2758). The series is described as follows: fluorescence polarization; Table 1 gives 3.7 uM, SD 217 nM. As to conditions: protein: recombinant; tags: His; label: 3' FAM.
T2 sequence (P29990 2492-2758): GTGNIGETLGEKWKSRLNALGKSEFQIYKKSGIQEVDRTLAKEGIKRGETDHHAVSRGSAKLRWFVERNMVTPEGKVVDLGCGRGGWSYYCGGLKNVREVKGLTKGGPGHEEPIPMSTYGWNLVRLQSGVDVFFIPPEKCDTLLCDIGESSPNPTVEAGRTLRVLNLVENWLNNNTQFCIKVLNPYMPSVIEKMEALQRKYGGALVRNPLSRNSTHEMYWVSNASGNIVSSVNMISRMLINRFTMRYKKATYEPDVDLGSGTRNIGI
The target in series [3] is T2, NS5 N-terminal capping enzyme WT …. Description: fluorescence polarization; mock control for GTP experiment. As to conditions: protein: recombinant; tags: His; label: 3' FAM.
The target is the same in series [4]. The series is described as follows: fluorescence polarization. As to conditions: protein: recombinant; tags: His; label: 3' FAM.
Series [5] has as its target NS5 capping enzyme WT (yellow fever) (Yellow fever virus, UniProt P03314 2507-2774). The series is described as follows: fluorescence polarization. Particulars: protein: recombinant; label: 3' FAM.

Sequence of NS5 capping enzyme WT (yellow fever) (P03314 2507-2774): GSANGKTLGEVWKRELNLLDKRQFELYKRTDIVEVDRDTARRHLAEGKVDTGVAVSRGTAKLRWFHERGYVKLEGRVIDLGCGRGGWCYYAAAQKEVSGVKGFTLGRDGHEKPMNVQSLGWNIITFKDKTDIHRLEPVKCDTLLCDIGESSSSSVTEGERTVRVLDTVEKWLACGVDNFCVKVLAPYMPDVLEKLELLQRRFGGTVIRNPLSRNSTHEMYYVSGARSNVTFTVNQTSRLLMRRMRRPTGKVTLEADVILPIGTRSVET

AGUAA [ppAGUAA-FAM] yielded a Kd in series [1] of 136 nM.
In the case of AGUAA (ssRNA, no 5' phosphate) [AGUAA-FAM], the Kd was found to be 3800 ± 200 nM in series [2] and 3500 nM in series [3].
Consider AGUAA (ssRNA, 5' monophosphate) [pAGUAA-FAM], for which, in series [4], the Kd is 967 ± 88 nM.
For AGUAA (ssRNA, 5' diphosphate) [ppAGUAA-FAM], the equilibrium dissociation constant (Kd) in series [5] was 420 ± 20 nM; in series [4], 187 nM and ~200 nM.
